Article PMC5032992

B1: rPoAbf (recombinant α‐L‐arabinofuranosidase from Pleurotus ostreatus) (Pleurotus sp. 'Florida') (protein)
chain: QTVSVSATASHPIPTTLWGQMFEDISHSGDGGLYAELLQNRALQQVTPNTAASLNAWSAINGGQISVVADSVPVSNSLPNSLRFTVPAGRTGQVGFANSGFFGMKIVASSTYKGSFFVKFPTASSFTGNLIVGLRTTSGSTIVSQTVPIRGASTSWQQISVSLTPRTTPPSTDNQFFVTIDGAAASGQTINFAMFSLFPPTFKNRANGMRDDIATALAEMKPKFFRFPGGNNLEGQTVPTRWQWNATIGSLLDRPGRAGDWGYINTDGLGLLEYLLFCEDLGMEPIMAVWAGFALGGTSVAQNGLQPYIQQAIDQINFVIGDPATSAPAARRAALGRAQPFKLTYVEIGNEDFFASDTYTYRWPAFVNALRGAFPNLKFIATSNINSPVLSPNPAQWDHHVYQTPTWFAQNSFFYDDMPRNGVTFFEGEYAAISTNPNDIFGSPANGRLTFSTMQSASGEAAYMIGMERNSDIVFAASYAPLLGHVAGSQWTPNLIAFDTGNVYRSASYFVQKLFSTNMGNEYIPSTLPSRTGTAFWGVTRNTATGEIIIKVSNTVAAQANLTFVLPFANVATSGSLQVLTGAATASNSPTTPSALAPATRTITTGKTFTFAAAGFSVNVITIKAS
B2: rPoAbf (recombinant α‐L‐arabinofuranosidase from Pleurotus ostreatus) (Pleurotus sp. 'Florida'; S160G) (protein)
chain: QTVSVSATASHPIPTTLWGQMFEDISHSGDGGLYAELLQNRALQQVTPNTAASLNAWSAINGGQISVVADSVPVSNSLPNSLRFTVPAGRTGQVGFANSGFFGMKIVASSTYKGSFFVKFPTASSFTGNLIVGLRTTSGGTIVSQTVPIRGASTSWQQISVSLTPRTTPPSTDNQFFVTIDGAAASGQTINFAMFSLFPPTFKNRANGMRDDIATALAEMKPKFFRFPGGNNLEGQTVPTRWQWNATIGSLLDRPGRAGDWGYINTDGLGLLEYLLFCEDLGMEPIMAVWAGFALGGTSVAQNGLQPYIQQAIDQINFVIGDPATSAPAARRAALGRAQPFKLTYVEIGNEDFFASDTYTYRWPAFVNALRGAFPNLKFIATSNINSPVLSPNPAQWDHHVYQTPTWFAQNSFFYDDMPRNGVTFFEGEYAAISTNPNDIFGSPANGRLTFSTMQSASGEAAYMIGMERNSDIVFAASYAPLLGHVAGSQWTPNLIAFDTGNVYRSASYFVQKLFSTNMGNEYIPSTLPSRTGTAFWGVTRNTATGEIIIKVSNTVAAQANLTFVLPFANVATSGSLQVLTGAATASNSPTTPSALAPATRTITTGKTFTFAAAGFSVNVITIKAS

Legend:
purified protein [1] = substrate: O=[N+]([O-])c1ccc(O[C@@H]2O[C@@H](CO)[C@H](O)[C@H]2O)cc1; assay: purified protein; conditions: pH 5.0, 40 °C, 10 min, 0.1-2.0 mM substrate, 40.0 °C
purified protein [2] = substrate: O=[N+]([O-])c1ccc(O[C@@H]2O[C@H](CO)[C@@H](O)[C@H](O)[C@H]2O)cc1; assay: purified protein; conditions: citrate phosphate buffer pH 5, 0.1-6 mM substrate

Row | Protein | Km (purified protein [1]) [µM] | kcat (purified protein [1]) | Km (purified protein [2]) [µM] | kcat (purified protein [2]) [s⁻¹]
1 | B1 | 640 ± 110 | 3,010 ± 145 Min^−1 | 4070 ± 150 | 0.183 ± 0.01
2 | B2 | 890 ± 190 | 2,590 ± 165 Min^−1 | 5030 ± 120 | 0.383 ± 0.015
